This series concerns the molecule itself. The series is described as follows: X-ray crystal structure, homodimer in the asymmetric unit.

Here are results for one protein from US7252930 (Takeda / Millennium, dated 2007).

B1: MvaS (HMG-CoA Synthase) from Enterococcus faecalis, full length with non-cleavable carboxy-terminal six histidine tag, seleno-methionine labeled (enzyme)
chain: MTIGIDKISFFVPPYYIDMTALAEARNVDPGKFHIGIGQDQMAVNPISQDIVTFAANAAEAILTKEDKEAIDMVIVGTESSIDESKAAAVVLHRLMGIQPFARSFEIKEACYGATAGLQLAKNHVALHPDKKVLVVAADIAKYGLNSGGEPTQGAGAVAMLVASEPRILALKEDNVMLTQDIYDFWRPTGHPYPMVDGPLSNETYIQSFAQVWDEHKKRTGLDFADYDALAFHIPYTKMGKKALLAKISDQTEAEQERILARYEESIVYSRRVGNLYTGSLYLGLISLLENATTLTAGNQIGLFSYGSGAVAEFFTGELVAGYQNHLQKETHLALLDNRTELSIAEYEAMFAETLDTDIDQTLEDELKYSISAINNTVRSYRNKGHHHHHH
modifications: seleno-methionine in place of methionine (100% incorporation by MS); observed mass corresponds to protein without N-terminal methionine
notes: It was crystallized as a complex with the small molecule HMG-CoA; There are two MvaS molecules (A and B) in the asymmetric unit, described as a dimer; also called MvaS Ef
Regarding B1, the binding result is given as “binds”.
